Assay results reported in article PMC11233452.

Biological target: T1, PsrA (Pseudomonas aeruginosa PAO1) (UniProt Q9HZJ9)
T1 sequence: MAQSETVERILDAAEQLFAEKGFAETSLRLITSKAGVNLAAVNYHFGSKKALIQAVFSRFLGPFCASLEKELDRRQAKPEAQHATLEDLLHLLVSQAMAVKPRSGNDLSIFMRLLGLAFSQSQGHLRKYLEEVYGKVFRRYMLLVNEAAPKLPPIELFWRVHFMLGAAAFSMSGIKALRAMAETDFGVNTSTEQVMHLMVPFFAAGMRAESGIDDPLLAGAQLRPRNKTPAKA
Experiment: EMSA

Sequence	binding
CCTGTCGGCGTTTCATGGAATTGTCACAACCGCACAGTATCGCTTGCGGTAAAGCGGCCCAGGTGGTCGAACGTTGTCATAGGGAGGGGGATGCTCGATGGCTGAAGGCTGCGTCCTGAACGGTGCTGGCATAACAGATAGGGTTGCCATGATTTTGCCGTATCGGCAAGGCTGCGCGCTTGACAGCGTCATACCCCGGGCCAATTCTGCTGTGATGCATTTTATCGATCAGGGCTTACTGCAATGAGGAATGACGGAGGCTTTTTGCTGTGGTGGGACGGTTTGCGTAGCGAGATG (double strand) [PrhlR 258-544 bp]	no binding
CGCTTCCCTTGATCGGGTCAGGTTGCCGCTACTGTGGAAGAAGCGTCGAGGACTCGATAGATAGCGCCCGAGTGTTTCAACTTGTCTTCTGGATGACGTTTTCATCGGGGAAACCTCCCGTCGGTCAGTGAAGCGCAAGGGCTGGCGTGCGAGGGTGGAATCGGCCGCCGGCTCGCTTTCTGCGCGGCGGGCGCACGGCACGGGGAGTCGTCGTTTTGGAGGTGAGGGATGACGGCTCTGTTTCAGGA (double strand) [PmvfR 223-470 bp]	no binding
GCGCACGGCACGGGGAGTCGTCGTTTTGGAGGTGAGGGATGACGGCTCTGTTTCAGGATATTTTTATAATTATGTGAAAGAAGAGCTTATTTCAACGAAATATGTTTCATATTGCTCGTAAATTCGACGAAAAGAAAATCCGGATATTTACCGGTTATTTAACGTTAATACCAAGGGCCTAATACCAAAGTATTAACGCTGGCATGCCGGCATGTCGTGTTCGGTCGTGGAGCGAGCCGAGCCAGGAACGGTTCTAAGAAACGA (double strand) [PmvfR 17-280 bp]	no binding
TGGCGATGGGCCGACAGTGAACCCGGGGACCAGGTGTGACTGGGTATTCAGTTCGCATAAAATGTGATCTAGATCACATTTAAACGTTTGCTTACCCTCTAGGACGGGTATCGTACTAGGTGCATCAAACGCTGCGGTCTATTGTTAAGTGGGACTGAAATGTGCCTTTCCGGCACAACGCCAACTCTATAG (double strand) [PlasR 153-344 bp]	binds
TGTGCGGTTGTGACAATTCCATGAAACGCCGACAGGCCGCCGCCATGGCCGGGTCCTCGAGCAAGCGCCACAGCGCCCCGCGCAACTCCTGCTCGCGCAACGGCACGCCCAGGCGCATCCCGCAGCCGAGCCGGACCAGCCGTTCGGCATTGTCGAACTGGTCGTGGGCACAGGGCAGCAGCACCTGCGGCACCCCCGCCGCCAAGGCTAGGCTCATGGCGCCGATACCGCCCGGATGGACCAGCCCGGCGCACGATGGCAGCAAGGCTCCCAGTGGCGCGTA (double strand) [PrhlR 11-293 bp]	no binding
